Assay results as given in patent US7534862.

How the values were obtained:
[1] = biological target: hyper-IL-6 (H-IL-6), a fusion protein comprising IL-6+sIL-6R (UniProt P08887); experiment: cell-based or functional assay
[2] = biological target: IL-6/sIL-6R complex (100 ng/ml IL-6 + 50 ng/ml sIL-6R) (UniProt P05231); experiment: cell-based or functional assay
Chain of IL-6/sIL-6R complex (100 ng/ml IL-6 + 50 ng/ml sIL-6R) (P05231 30-212 limits assumed, chain 1 of 2): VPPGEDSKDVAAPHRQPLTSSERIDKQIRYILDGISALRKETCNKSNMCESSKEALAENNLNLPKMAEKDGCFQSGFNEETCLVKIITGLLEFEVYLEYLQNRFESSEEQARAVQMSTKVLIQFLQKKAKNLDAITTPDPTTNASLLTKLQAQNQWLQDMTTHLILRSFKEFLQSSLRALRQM
Chain of IL-6/sIL-6R complex (100 ng/ml IL-6 + 50 ng/ml sIL-6R) (P08887 20-358 limits assumed, chain 2 of 2, further chain): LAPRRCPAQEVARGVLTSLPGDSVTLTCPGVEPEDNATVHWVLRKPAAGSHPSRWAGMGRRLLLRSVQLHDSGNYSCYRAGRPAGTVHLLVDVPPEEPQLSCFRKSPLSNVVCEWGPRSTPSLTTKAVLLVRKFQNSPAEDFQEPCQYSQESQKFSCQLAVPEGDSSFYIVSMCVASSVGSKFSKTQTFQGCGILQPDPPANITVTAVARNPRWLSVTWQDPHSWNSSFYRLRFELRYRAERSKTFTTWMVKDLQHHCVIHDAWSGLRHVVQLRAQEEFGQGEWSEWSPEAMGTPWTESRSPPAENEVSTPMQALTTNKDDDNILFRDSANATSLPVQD

Chain of sgp130TagPEG (PEGylated sgp130Tag / sgp130(D1-D3)-His, forked PEG) (P40189 other isoform, or with tags, fused parts or gaps): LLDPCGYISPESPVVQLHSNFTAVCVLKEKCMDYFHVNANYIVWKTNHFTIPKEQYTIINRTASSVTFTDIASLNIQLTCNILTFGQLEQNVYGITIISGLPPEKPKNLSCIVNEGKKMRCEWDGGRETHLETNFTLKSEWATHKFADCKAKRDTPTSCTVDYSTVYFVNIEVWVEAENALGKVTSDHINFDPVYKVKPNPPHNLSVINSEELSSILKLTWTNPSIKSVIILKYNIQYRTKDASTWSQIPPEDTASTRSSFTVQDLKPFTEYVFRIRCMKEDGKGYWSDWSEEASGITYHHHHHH
Chain of hyper-IL-6 (H-IL-6), a fusion protein comprising IL-6+sIL-6R (P08887 20-323 limits assumed, chain 1 of 2): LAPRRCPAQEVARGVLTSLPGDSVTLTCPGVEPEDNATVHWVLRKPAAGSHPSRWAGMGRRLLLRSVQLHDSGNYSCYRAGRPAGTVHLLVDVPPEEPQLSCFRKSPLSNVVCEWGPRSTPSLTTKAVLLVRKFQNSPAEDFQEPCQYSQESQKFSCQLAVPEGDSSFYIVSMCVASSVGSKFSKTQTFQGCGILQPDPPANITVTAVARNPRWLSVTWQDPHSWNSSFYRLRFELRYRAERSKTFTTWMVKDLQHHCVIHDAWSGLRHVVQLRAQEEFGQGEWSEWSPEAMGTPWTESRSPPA
Chain of hyper-IL-6 (H-IL-6), a fusion protein comprising IL-6+sIL-6R (P05231 30-212 limits assumed, chain 2 of 2, further chain): as the sequence (P05231 30-212 limits assumed, chain 1 of 2) above
Chain of Human sgp130Fc (P40189 23-619 limits assumed): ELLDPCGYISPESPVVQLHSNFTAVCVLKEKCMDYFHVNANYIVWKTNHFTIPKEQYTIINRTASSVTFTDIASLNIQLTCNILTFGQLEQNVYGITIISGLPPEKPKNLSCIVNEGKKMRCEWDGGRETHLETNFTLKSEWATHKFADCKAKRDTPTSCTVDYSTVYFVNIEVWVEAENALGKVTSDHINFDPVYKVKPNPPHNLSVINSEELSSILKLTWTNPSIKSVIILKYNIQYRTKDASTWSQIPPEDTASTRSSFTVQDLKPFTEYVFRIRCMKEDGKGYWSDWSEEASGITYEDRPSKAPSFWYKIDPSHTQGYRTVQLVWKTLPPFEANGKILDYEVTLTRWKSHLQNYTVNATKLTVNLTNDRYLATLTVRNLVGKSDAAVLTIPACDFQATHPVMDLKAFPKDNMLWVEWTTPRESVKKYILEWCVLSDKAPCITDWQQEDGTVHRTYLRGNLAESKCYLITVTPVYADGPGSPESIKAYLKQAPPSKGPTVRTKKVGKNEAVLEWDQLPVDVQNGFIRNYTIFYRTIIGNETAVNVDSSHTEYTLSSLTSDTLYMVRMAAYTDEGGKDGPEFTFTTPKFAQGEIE

Row | STAT3 activity (relative luciferase activity, pSTAT3-TA-Luc reporter in BAF/gp130 cells) at 10 ug/ml inhibitor, 5 ng/ml H-IL-6 (% of activity with H-IL-6 alone) [1] | factor of improvement over sgp130Fc in inhibition of BAF/gp130 proliferation (fold vs sgp130Fc) [2] | half-maximal [3H]-thymidine incorporation of BAF/gp130 cells (proliferation) [2] [ng/mL] | concentration giving half-maximal activation of STAT3 (H-IL-6-induced, luciferase reporter in BAF/gp130 cells) [1] [µg/mL] | efficiency relative to sgp130Fc in inhibition of H-IL-6-induced STAT3 activation (fold vs sgp130Fc) [1] | factor of improvement over sgp130Fc in inhibition of BAF/gp130 proliferation (fold vs sgp130Fc) [1] | half-maximal [3H]-thymidine incorporation of BAF/gp130 cells (proliferation) [1] [ng/mL] | Substance
1 | 26 | – | – | – | – | – | – | Human sgp130Fc (from UniProt P40189 23-619) (Fc fusion)
2 | 19 | 1.5 to 3 | 1 to 5 | 2.5 | 2 to 3 | 1.5 to 3 | 1 to 5 | sgp130TagPEG (PEGylated sgp130Tag / sgp130(D1-D3)-His, forked PEG) (from UniProt P40189 24-322) (receptor)
